The Kd is the equilibrium constant for the complex coming apart. Higher therefore signals weaker binding.

From paper PMC6793842 come the findings set out here.

What all share (experiment): SPR
In general terms: SPR reads the build-up and loss of mass on a sensor chip optically.

In test [1] the target is gorilla basigin, entire ectodomain (gorilla).
Test [2] addresses human basigin, entire ectodomain (human) (UniProt P35613).
Test [3] deals with chimpanzee basigin, entire ectodomain (chimpanzee).
Test [4] deals with gorilla basigin, entire ectodomain. The conditions noted are these: read off a plot; for other: t1/2 (interaction half-life): parent: est. 1.9 s; for response (response units): plateau of the highest curve of four 2-fold serial dilutions (600 to 75 nM), parent: est. 92.

human basigin, entire ectodomain (human), sequence (P35613 138-325): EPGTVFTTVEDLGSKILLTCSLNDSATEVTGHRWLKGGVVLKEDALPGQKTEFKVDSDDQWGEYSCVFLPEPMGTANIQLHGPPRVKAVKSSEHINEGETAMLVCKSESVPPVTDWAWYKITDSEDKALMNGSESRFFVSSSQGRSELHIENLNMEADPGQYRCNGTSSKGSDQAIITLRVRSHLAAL

P. adleri RH5 (ligand): the Kd was 1000 nM in test [1] and 3.1 µM in test [2]. On to P. billcollinsi RH5 (ligand), for which the Kd in test [3] was determined as 1800 nM. Substance P. gaboni RH5 (ligand) came in with a Kd in test [2] of 3.6 µM. With P. praefalciparum RH5 (ligand), the Kd is 2500 nM in test [1] and 1.9 µM in test [2]. For the substance “introgressed ancestral RH5 (reticulocyte-binding protein homologue 5) (from UniProt Q8IFM5) D148H”, in test [4], the other: t1/2 (interaction half-life) stood at 2.5 s and the response (response units) amounted to 190.

For the substance “introgressed ancestral RH5 (reticulocyte-binding protein homologue 5) (from UniProt Q8IFM5) H200Y”, the response (response units) in test [4] is 26.

Turning to “introgressed ancestral RH5 (reticulocyte-binding protein homologue 5) (from UniProt Q8IFM5) Q219K”, in test [4], the other: t1/2 (interaction half-life) turned out to be 2.2 s and the response (response units) stood at 310. The matching figures for “introgressed ancestral RH5 (reticulocyte-binding protein homologue 5) (from UniProt Q8IFM5) R216T”: 2.3 s and 130. The matching figures for “introgressed ancestral RH5 (reticulocyte-binding protein homologue 5) (from UniProt Q8IFM5) Y197S”: 1.9 s and 210. For the substance “introgressed ancestral RH5 (reticulocyte-binding protein homologue 5) (from UniProt Q8IFM5) Y203C”, in test [4], the other: t1/2 (interaction half-life) amounted to 1.2 s and the response (response units) was 120.
